Columns and labels:
[1] = biological target: T1, SLPI of human tumour cell lines (endogenous; on cells or in conditioned media) (human, UniProt P03973 26-132); assay: cell-based or functional assay
[2] = biological target: T2, recombinant human SLPI (Secretory leukocyte protease inhibitor), R&D Systems Cat#260-PI (human, UniProt P03973 25-131, biotinylated in the streptavidin-plate ELISAs and on SRBCs); assay: ELISA, B cell supernatant on biotinylated SLPI, rescreen
T2 construct: Bought protein; also called biotinylated SLPI; B-Cur12

[3] = biological target: T2, recombinant human SLPI (Secretory …); assay: limiting antigen ELISA, biotinylated SLPI coated at 50 ng/ml
Procedure: The limiting antigen analysis is a method that affinity ranks the antigen-specific antibodies in B cell culture supernatants. […] Each plate was washed 5 times with dH₂O, before 46 μl/well of 1% milk in PBS with 0.05% sodium azide was added, followed by 4 μl/well of B cell supernatant. After 22 hours at RT on a shaker, the plates were again washed 5 times with dH₂O. Goat anti-Human (Fc)-HRP at 1 μg/ml, 50 μl/well was added. After 1 hour at RT, the plates were again washed 5 times with dH₂O and 50 μl/well of TMB substrate was added. The reaction was stopped by the addition of 50 μl of 1M phosphoric acid to each well and the plates were read at wavelength 450 nm. 42C1, 43H7, 35F1 and 9G12 were chosen for further evaluation and cloning.

[4] = biological target: T2, recombinant human SLPI (Secretory …); assay: ELISA, B cell supernatant on biotinylated SLPI, primary screen
Procedure: Anti-SLPI antibody titers were determined by indirect ELISA. Briefly, biotinylated SLPI (0.5 μg/mL) was coated onto Sigma Streptavidin Clear Polystyrene 96 well ELISA plates for 30 minutes at room temperature (RT). The plates were then washed 4× by hand, then pat dried on paper towels. XenoMouse® animal sera from SLPI immunized, or naïve XenoMouse® animals, were titrated out to 6 wells, the last well left blank, in 1% no fat skim milk/PBS at 1:2 dilutions in duplicate from a 1:500 initial dilution. 50 μl was used for each well. The plates were incubated for 1 hour then washed four times. 50 μl of a goat anti-human IgG Fc-specific HRP-conjugated antibody (0.4 μg/mL) was added to each well and incubated for 1 hour at RT. The plates were washed five times with distilled water (dH₂O). The plates were developed with the addition of TMB for 30 minutes and the ELISA was stopped by the addition of 1 M phosphoric acid. The specific titers of individual XenoMouse® animals were determined from the optical density at 450 nm, Table 2. The titers represent the reciprocal dilution of the serum to either SLPI or streptavidin and therefore the higher the number, the greater the humoral immune response. Lymph nodes were harvested for XenoMax® antibody generation from immunized XenoMouse® animals with specific titers to SLPI versus streptavidin as shown in Table 4.
B cells from the harvested animals were cultured and those secreting SLPI-specific antibodies were isolated as described previously (Babcook et al., 1996 Proc. Natl. Acad. Sci. USA, 93:7843-7848). ELISA, performed as described above, was used to identify primary SLPI-specific wells from fifty plates cultured at 500 or 150 cells/well.

[5] = biological target: T2, recombinant human SLPI (Secretory …); assay: BIAcore 2000, 25 C, antibody captured on goat anti-human surface, SLPI injected
Procedure: BiaCore® analysis was used to determine binding affinity of anti-SLPI antibody to SLPI antigen. The analysis was performed at 25° C. using a BiaCore® 2000 biosensor equipped with a research-grade CM5 sensor chip. A high-density goat α human antibody surface over a CM5 BiaCore® chip was prepared using routine amine coupling. Antibody supernatents were diluted to ˜5 μg/mL in HBS-P running buffer containing 100 μg/mL BSA and 10 mg/mL carboxymethyldextran. The antibodies were then captured individually on a separate surface using a 2 minute contact time, and a 5 minute wash for stabilization of antibody baseline.
SLPI antigen was injected over each surface for 75 seconds, followed by a 3-minute dissociation. Double-referenced binding data were obtained by subtracting the signal from a control flow cell and subtracting the baseline drift of a buffer inject just prior to the SLPI injection. SLPI binding data for each mAb were normalized for the amount of mAb captured on each surface. The normalized, drift-corrected responses were also measured.

[6] = biological target: T1, SLPI of human tumour cell lines …; assay: flow cytometry, 42C1 at 170 nM on OVCAR-4 cells
Procedure: (§1) FACS analysis of anti-SLPI antibody binding to OVCAR4, OVCAR-5, OVCAR-8, SK-OV-3, A2780, SF294, 786-0 cell lines was done as follows. Suspended cells were washed twice with ice-cold FACS buffer (SOURCE) and incubated with antibody 42C1 (170 nM/FACS buffer) for 1 hr then washed. Cells were incubated with a 1:500 dilution in FACS buffer of […] donkey anti-human IgG (H+L) (Jackson Immunolabs) for 30 minutes. Cells were washed and then fixed with 1% formaldehyde in PBS. Analysis was done using a FACS Calibur™ flow cytometer (Becton Dickinson, Frankin Lakes, N.J.).
(§2) 42C1 antibody bound SLPI on SLPI expressing ovarian cancer cell lines: OVCAR-4 (Geo Mean Ratio 37), OVCAR-5 (Geo Mean Ratio 10), and OVCAR-8 (Geo Mean Ratio 35) as compared to SLPI negative cell line 786-0 (Geo Mean Ratio 3).

[7] = biological target: T1, SLPI of human tumour cell lines …; assay: flow cytometry, 42C1 at 170 nM on OVCAR-5 cells
Procedure: as §1, §2

[8] = biological target: T1, SLPI of human tumour cell lines …; assay: flow cytometry, 42C1 at 170 nM on OVCAR-8 cells
Procedure: as §1, §2

T2 sequence (P03973 25-131): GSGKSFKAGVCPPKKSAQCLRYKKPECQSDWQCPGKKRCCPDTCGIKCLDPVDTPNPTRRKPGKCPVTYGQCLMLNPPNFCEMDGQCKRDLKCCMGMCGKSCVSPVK
T1 sequence (P03973 26-132 limits assumed): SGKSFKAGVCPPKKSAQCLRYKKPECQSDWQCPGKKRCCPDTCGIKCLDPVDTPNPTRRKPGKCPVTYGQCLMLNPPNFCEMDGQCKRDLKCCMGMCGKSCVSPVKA

| Binder | IC50 of growth inhibition of IGROV-1 cells, clonogenic assay [1] [nM] | IC50 of growth inhibition of SW480 cells, clonogenic assay [1] [nM] | 2* OD [2] [OD450] | OD [3] [OD450] | 1* OD [4] [OD450] | Kd [5] [nM] | Geo Mean Ratio [6] | Geo Mean Ratio [7] | Geo Mean Ratio [8] |
| --- | --- | --- | --- | --- | --- | --- | --- | --- | --- |
| 35F1 (antibody, human IgG2, V domains shown, Fully human, XenoMouse XMG2; also called #50; Cur12.1 PL35 F1) VH: QVQLQESGPGLVKPSQTLSLTCTVSGGSIKSGDYYWSWVRQLPGKGLEWIGYIYYSGSTYYNPSLKSRVTISIDTSKNQFSLKLSSVTAADTAVYYCAREGSYYDSGGFDYWGQGTLVTVSS VL: not shown | 163 | 85 | 0.41 | 0.17 | 0.425 | 0.14 | – | – | – |
| 42C1 (antibody, human IgG2, V domains shown, Fully human, XenoMouse XMG2; also called #24; Cur12.1 PL42 C1) VH: QVQLQESGPGLVKPSQTLSLTCTVSGVSISSGGYYWSWIRQHPGKGLEWIGYIYYSGSTYYNPSLKSRVTISVDTSKNQFSLKLSSVTAADTAVFYCAREGEYYDEGGFDYWGQGTLVTVSS VL: not shown | 121 | 85 | 2.25 | 3.01 | 3.23 | 0.116 | 37 | 10 | 35 |
| 43H7 (antibody, human IgG2, V domains shown, Fully human, XenoMouse XMG2; also called #11; Cur12.1 PL43 H7) VH: QVQLVESGGGVVQPGRSLRLSCAASGFTFSTYGMHWVRQAPGKGLEWVTFIWYDGRNKYYADSVKGRFTVSRDNSKNTLYLQMNSLRAEDTAVYYCARGDDYGDYHPHYYYYGLDVWGQGTTVTVSS VL: DIVMTQTPLSLSVTPGQPASISCKSSQSLLDSDGKTYLYWYLQKPGQPPQLLIYEVSNRFSGVPDRFSGSGSGTDFTLKISRVEAEDVAYYYCMQSIQLPWTFGQGTKVEIK | – | – | 2.28 | 1.19 | 3.37 | 0.104 | – | – | – |
| 9G12 (antibody, human IgG2, V domains shown, Fully human, XenoMouse XMG2; also called #36; Cur12.1 PL09 G12) VH: QVQLVESGGGVVQPGRSLRLSCAASGFTFSGYGMHWVRQAPGKGLEWVAFIWYNGNDNYYTDSVKGRFTISRDNSKNTLYLQMNSLRAEDTAVYYCARGDDYGDYHPHYYYYGMDVWGQGTTVTVSS VL: DIVMTQTPLSLSVTPGQPASISCKSSQSLLDSDGKTYLYWYLQKPGQPPQLLIYEVSNRFSGVPDRFSGSGSGTDFTLKISRVEAEDIGVYYCLQSIQLPWTFGQGTKVEIK | – | – | 1.97 | 0.6 | 2 | 0.053 | – | – | – |
